US20230399390A1 (NOVAGO THERAPEUTICS, published 2023)
Values belong to the binder of their own block, whether it stands above or below them.

Tests used:
[1] = biological target: T1, human Nogo-A d20plus region (human aa position 543-866), recombinantly produced in E. coli (human, UniProt Q9NQC3 543-866); assay: ELISA, coated d20plus (human, as read from the context), internal standard
T1 construct: range 543-866; also called human d20plus; hu d20+
T1 sequence (looked up): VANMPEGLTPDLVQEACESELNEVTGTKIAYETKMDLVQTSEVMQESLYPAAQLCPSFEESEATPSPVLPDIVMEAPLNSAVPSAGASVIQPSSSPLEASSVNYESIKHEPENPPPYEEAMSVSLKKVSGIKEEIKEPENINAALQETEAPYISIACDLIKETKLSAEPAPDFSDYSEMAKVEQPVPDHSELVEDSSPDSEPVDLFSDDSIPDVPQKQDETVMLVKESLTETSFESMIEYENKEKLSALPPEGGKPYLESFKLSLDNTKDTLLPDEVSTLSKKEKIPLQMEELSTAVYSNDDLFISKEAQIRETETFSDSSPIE

[2] = biological target: T2, peptide 36: 141-INAALQETEAPYISI-155 (human); assay: pepscan, 15-mer peptides on nitrocellulose, NG004 at 1 ug/ml
T2 construct: Spotted on a nitrocellulose membrane; The range counts on the d20plus region; also called spot 36
T2 peptide: INAALQETEAPYISI
Method: (§1) Epitope mapping of NG004 was performed using scans of overlapping peptides. The sequences of the d20plus region of Nogo-A (aa 543-866 of human Nogo-A) were synthesized as linear 15-mer peptides with an 11 amino acid overlap between individual peptides. Those peptides were spotted onto nitrocellulose membranes (JPT Peptide Technologies, Berlin, Germany). The membrane was activated for 5 min in methanol and washed in TBS for 10 min at RT. Non-specific binding sites were blocked for 2 hours at RT with Roti®-Block (Carl Roth GmbH+Co. KG, Karlsruhe, Germany). NG004 (1 μg/ml) was incubated in Roti®-Block for 3 h at room temperature. Binding of primary antibody was determined using HRP-conjugated donkey anti-human IgG secondary antibody. Blots were developed and evaluated using ECL and ImageQuant 350 detection (GE Healthcare, Otelfingen, Switzerland).

[3] = biological target: T3, peptide 34: 133-EEIKEPENINAALQE-147 (human); assay: as above
T3 construct: Spotted on a nitrocellulose membrane; The range counts on the d20plus region, not on full-length Nogo-A; also called spot 34
T3 peptide: EEIKEPENINAALQE
Method: as §1

[4] = biological target: T4, peptide 35: 137-EPENINAALQETEAP-151 (human); assay: as above
T4 construct: Spotted on a nitrocellulose membrane; The range counts on the d20plus region; also called spot 35
T4 peptide: EPENINAALQETEAP
Method: as §1

[5] = biological target: T1, human Nogo-A d20plus region (human aa …); assay: ELISA, plate coated with 3 ug/ml human d20plus
Excerpt: (§2) The neurite outgrowth inhibitor Nogo-A contains 3 inhibitory regions. Two are shared with the splice variant Nogo-B (Nogo-66 located between the two transmembrane regions and the NIR domain at the tip of the N-terminus) and one is shared with the splice variant Nogo-C (Nogo-66). The unique, highly inhibitory domain for neurite outgrowth of Nogo-A is located in the exon 3 of Nogo-A and is called delta 20 region (d20; human aa position 566-748) (Oertle et al., J. Neurosci. 23 (2003), 5393-5406). To confirm the binding properties of antibodies NG004 NG034 and to monitor for cross-reactivity to other species like rat, an ELISA with a fragment containing the d20 region plus some additional amino acids C- and N-terminal of the inhibitory region (human aa position 543-866) was performed. This fragment is called rat or human d20plus and is recombinantly produced in E. coli. To examine that the antibody binds strongly to the d20plus region and to compare the binding properties of the subject antibodies NG004 and NG034 to the already known antibodies (11C7 and Ozanezumab) the ELISA was used and EC₅₀ values were compared.
(§3) The ELISA is performed according to a standard protocol (Engvall & Perlmann, J. Immunol. 109 (1972), 129-135, Engvall & Perlmann, Immunochemistry 8 (1971), 871-874). […] The readouts are performed on the Tecan Sparc plate reader.

[6] = biological target: T5, rat Nogo-A d20plus region, recombinantly produced in E. coli (rat, UniProt Q9JK11 520-843, limits assumed); assay: ELISA, coated rat d20plus
T5 construct: domain: d20plus; also called rat d20plus; rat peptide d20plus
T5 sequence (looked up): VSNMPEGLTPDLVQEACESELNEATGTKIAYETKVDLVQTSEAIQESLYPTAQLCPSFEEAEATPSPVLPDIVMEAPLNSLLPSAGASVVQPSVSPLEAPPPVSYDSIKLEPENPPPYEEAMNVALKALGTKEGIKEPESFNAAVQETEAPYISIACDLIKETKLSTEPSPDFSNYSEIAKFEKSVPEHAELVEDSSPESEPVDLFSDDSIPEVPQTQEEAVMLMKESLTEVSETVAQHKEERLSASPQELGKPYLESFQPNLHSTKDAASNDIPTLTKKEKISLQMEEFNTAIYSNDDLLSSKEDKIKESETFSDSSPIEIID
Excerpt: as §2, §3

[7] = biological target: T1, human Nogo-A d20plus region (human aa …); assay: ELISA, coated human d20plus
Excerpt: as §2, §3

EC50 [1]: 0.2 nM
B1: Ozanezumab (antibody, V domains shown)
VH: QVQLVQSGAEVKKPGASVKVSCKASGYTFTSYWMHWVRQAPGQGLEWIGNINPSNGGTNYNEKFKSKATMTRDTSTSTAYMELSSLRSEDTAVYYCELMQGYWGQGTLVTVSS
VL: DIVMTQSPLSNPVTLGQPVSISCRSSKSLLYKDGKTYLNWFLQRPGQSPQLLIYLMSTRASGVPDRFSGGGSGTDFTLKISRVEAEDVGVYYCQQLVEYPLTFGQGTKLEIK

binding result [2]: binds | binding result [3]: binds | binding result [4]: binds | EC50 [5]: 0.26 nM
B2: anti-Nogo-A specific human antibody NG004 (antibody, V domains shown)
VH: EVQLVESGGGVVQPGRSLRLSCAASGFTFRSHAMHWVRQAPGKGLEWVAVTSYDGTNKYYADSVKGRFTISKDNSKNTLYLQMDSLRVEDTAVYYCARGRAVAGTREDYWGQGTLVTVSS
VL: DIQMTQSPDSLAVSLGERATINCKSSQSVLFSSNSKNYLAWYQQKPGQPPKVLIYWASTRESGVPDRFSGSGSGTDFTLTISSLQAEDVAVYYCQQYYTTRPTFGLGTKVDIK
notes: The neurite outgrowth assay used NG004.h4.m1 (human IgG4 S228P) and NG004.m1 (mouse IgG1); also called NG004.m1; NG004.h4.m1

EC50 [6]: 0.229 nM | EC50 [7]: 0.298 nM
B3: anti-Nogo-A specific human antibody NG034 (antibody, V domains shown)
VH: EVQLVETGGGLVPPGGSLRLSCAASGFTFTNYSMHWVRLAPGKRLEYISAISSDGGDPFYASSVKGRVAISRDNSKKTLYLQMGRLRPEDTAVYYCVSDAFDVWGQGTMVTVSS
VL: EIVLTQSPLSLSVTLGQPASISCRSSQSLLYSNGNTYLNWFQQRPGQSPRRLLYRVSNRDSGVPDRFSGSGSGTHFTLKISRVEAEDVGVYYCMQGTHWPRTFGQGTKVEIK
